Source: US20230057012A1, “TGFB INHIBITORS AND USE THEREOF” (Scholar Rock, Inc., priority 2020, published 2023)

Legend:
[1] = system: Human; conditions: in vivo; cited from earlier work
[2] = system: Female Fischer344 rats or Sprague Dawley (SD) rats; conditions: rat, in vivo
Protocol: Animals receiving LY2109761 were dosed by oral gavage once daily for five or seven days. Animals were sacrificed and necropsies performed.

[3] = system: non-diseased rat BAL; experiment: TGFβ downstream tonic signaling in rat BAL; assay type: in vivo
Source text: Indeed, data presented herein support this notion. […] Preferably, TGFβ antagonists for use in the treatment of such conditions exert their inhibitory activities only towards the disease-induced or disease-associated isoform, while preserving the function of the other isoforms that are normally expressed to mediate tonic signaling in the tissue. […] Alternatively or additionally, agents that target and block integrin-dependent activation of TGFβ may be capable of blocking only a subset of integrins responsible for disease-associated TGFβ1 activation, among numerous integrin types that are expressed by various cell types and play a role in the pathogenesis. Furthermore, even where such antagonists may selectively block integrin-mediated activation of the TGFβ1 isoform, it may be ineffective in blocking TGFβ1 activation triggered by other modes, such as protease-dependent activation. By contrast, the isoform-specific, inhibitors of TGFβ1 such as those described herein are aimed to prevent the activation step of TGFβ1 regardless of the particular mode of activation, while maintaining isoform selectivity. Preferably, the isoform-selective activation inhibitor of TGFβ1 is Ab46 or an engineered molecule comprising an antigen-binding fragment thereof.

| Compound | Half-life [1] | previously reported adverse events in human patients [1] | bone findings [2] | TGFβ downstream tonic signaling [3] |
| --- | --- | --- | --- | --- |
| GC1008: human analog of 1D11, pan-TGFβ antibody | Half-life: 21.7 d | leukocytosis (grade 3), fatigue (grade 3), hypoxia (grade 3), asystole (grade 5), leukopenia (grade 1), recurrent, transient, tender erythematous, nodular skin lesions, suppurative dermatitis, and herpes zoster | – | – |
| c1ccc(-c2nn3c(c2-c2ccnc4cc(OCCN5CCOCC5)ccc24)CCC3)nc1 [LY2109761] | – | – | macroscopic abnormally shaped sternum and microscopic increased thickness of the hypertrophic zone in the endplate of the sternum and physis of the femur and tibia | inhibit TGFβ downstream tonic signaling |
